For series [1], the target named is T1, PcYap1 (Penicillium chrysogenum Wis54-1255 (P. rubens Wis54-1255)) (UniProt B6HDY4).
T1 sequence: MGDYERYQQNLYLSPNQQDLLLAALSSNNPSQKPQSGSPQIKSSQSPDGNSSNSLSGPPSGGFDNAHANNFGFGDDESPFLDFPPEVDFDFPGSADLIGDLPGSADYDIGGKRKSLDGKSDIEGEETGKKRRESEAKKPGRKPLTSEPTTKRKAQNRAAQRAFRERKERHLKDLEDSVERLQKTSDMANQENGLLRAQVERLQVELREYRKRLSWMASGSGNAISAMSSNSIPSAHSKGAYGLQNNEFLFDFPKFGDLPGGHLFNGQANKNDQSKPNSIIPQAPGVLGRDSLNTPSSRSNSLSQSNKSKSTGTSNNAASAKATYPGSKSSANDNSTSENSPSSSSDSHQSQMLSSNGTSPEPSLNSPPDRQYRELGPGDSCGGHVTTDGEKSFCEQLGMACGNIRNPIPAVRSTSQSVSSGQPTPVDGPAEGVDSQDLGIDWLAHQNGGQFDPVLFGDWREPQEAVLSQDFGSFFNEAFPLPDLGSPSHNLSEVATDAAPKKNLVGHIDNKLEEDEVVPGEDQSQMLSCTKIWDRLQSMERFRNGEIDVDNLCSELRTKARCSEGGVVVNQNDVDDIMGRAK
As to the kind of experiment: EMSA. The note with it: LightShift binding buffer 1X, about 10% glycerol, 5 mM MgCl2, 20 fmol biotin probe, 10 ug protein, 20 uL, room temperature 20 min; 5% native PAGE in 0.5X TBE …. (A gel shift assay detects complexes by their altered migration in electrophoresis.)

Series [2] addresses T2, PcRsmA (Penicillium chrysogenum Wis54-1255 (P. rubens Wis54-1255)) (UniProt B6GZ21).
T2 sequence: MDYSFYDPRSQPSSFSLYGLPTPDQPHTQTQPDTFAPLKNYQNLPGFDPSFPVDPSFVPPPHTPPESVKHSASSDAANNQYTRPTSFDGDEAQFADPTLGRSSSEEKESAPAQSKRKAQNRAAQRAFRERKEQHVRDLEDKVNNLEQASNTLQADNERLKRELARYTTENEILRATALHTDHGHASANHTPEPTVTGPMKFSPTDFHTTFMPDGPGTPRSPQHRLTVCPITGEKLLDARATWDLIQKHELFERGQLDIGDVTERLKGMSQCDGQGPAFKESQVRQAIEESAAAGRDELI
Briefly: EMSA. The following applies: LightShift binding buffer 1X, about 10% glycerol, 5 mM MgCl2, 20 fmol biotin probe, 10 ug protein, 20 uL, room temperature 20 min; 5% native PAGE in 0.5X TBE ….

For series [3], the target named is T3, PcRsmA (Penicillium chrysogenum Wis54-1255 (P. …, UniProt B6GZ21 1-299)).
T3 sequence: T2 sequence
As to the kind of experiment: EMSA; LightShift binding buffer 1X, about 10% glycerol, 5 mM MgCl2, 20 fmol biotin probe, 10 ug protein, 20 uL, room temperature 20 min; 5% native PAGE in 0.5X TBE; pH and salt not given. The note with it: protein: recombinant; tags: C-terminal c-myc-6xHis; chain copies: 2; label: 3' biotin; blunt.

Series [4] addresses T4, PcYap1 (Penicillium chrysogenum Wis54-1255 (P. …, UniProt B6HDY4 1-582)).
T4 sequence: T1 sequence
The description is as above. The note with it: protein: recombinant; tags: C-terminal c-myc-6xHis; chain copies: 2; label: 3' biotin; blunt.

Where a chain is given by its changes, count along the chain named.

As to “AACATCGCCGTCGTTGAGTGCACGTTGCCTACTCTCTCGTGGCTTGGCTGGGCCCACGAGCCCGATTGACTCGACGGTGTTACTTGGGTATCTATGGCCCCGTTTTCTGGCACGGTAATGATAAGTACTTACTAGTCTTCGAGCGGGGGAGTGTTGCTCTGCCCGAGCATCAACGATTGGCCTGA (double strand) [probe 4]”, the binding entry in series [1] and in series [2] was “no binding” in each case.
For “CCGAGCATCAACGATTGGCCTGATCGCACCGTCTGCAAATGCCACGGTGCGGACCGACTGAAATCTCAGACCACCAAAGACCCTCCGACTTCGAGATACGG (double strand) [dwPta1]”, the binding entry in series [2] was “no binding”.
As to “TGTTTATGCTGAGACAACCTGGAGACATTATACGCTTGCAGCCCAGATGCTTACTGGATGGGGCCGCTGGAGCCAGTGTAAAATTAGTAACCGTATCTCGAAGTCGGAGGGTCTTTGGTGGTCTGAGATTTCAGTCGGTCCGCACCGTGGCATTTGCAGACGGTGCGATCAGGCCAATCGTTGATGCTCGG (double strand) [probe 5]”, the binding result in series [1] and in series [2] was “binds” in each case.

B1: RsmA-2B (dsDNA)
DNA 1: CAGTAAGCATCTGGGCTGCAAGCGTATAATGTCTCCAG
DNA 2: CTGGAGACATTATACGCTTGCAGCCCAGATGCTTACTG
On to B1, for which, in series [3], the binding result was “no binding”.

B2: AflR-RsmA (dsDNA)
DNA 1: CGACTGACACAAGAAATAACAATTC
DNA 2: GAATTGTTATTTCTTGTGTCAGTCG
As to B2, the binding result in series [3] was “binds”.

B3: RsmA-2 (dsDNA)
DNA 1: CAGTAAGCATCTGGGCTGCAAGCGTATAATGTCTCCAGGTTGTCTCAGCATAAACA
DNA 2: TGTTTATGCTGAGACAACCTGGAGACATTATACGCTTGCAGCCCAGATGCTTACTG
Regarding B3, the binding result in series [3] is reported as “binds”.

B4: PTA1-WT (dsDNA)
DNA 1: GCCAGTGTAAAATTAGTAACCGTATCTC
DNA 2: GAGATACGGTTACTAATTTTACACTGGC
On to B4, for which the binding result in series [4] was “binds”; in series [3] it was “no binding”.

B5: RsmA-2C (dsDNA)
DNA 1: CTCCAGGTTGTCTCAGCATAAACA
DNA 2: TGTTTATGCTGAGACAACCTGGAG
Turning to B5, the binding result in series [3] was “binds”.

B6: PTA1-M1 (dsDNA)
DNA 1: GCCAGTGTAAAACTAGTCACCGTATCTC
DNA 2: GAGATACGGTGACTAGTTTTACACTGGC
In the case of B6, the binding result in series [4] and in series [3] was “no binding” throughout.

B7: penDE-CRE123 (dsDNA)
DNA 1: AGGTCCTGCATTAGCGTACGCCCCAGGTTTAGATCAAAGTTACGTAATTTATATGTA
DNA 2: TACATATAAATTACGTAACTTTGATCTAAACCTGGGGCGTACGCTAATGCAGGACCT
With B7, the results for the binding result in series [4] and in series [3] were “no binding” and “binds”, respectively.

B8: penDE-CRE123-M1 (dsDNA)
DNA 1: B7 DNA 1 with T40C, T45A
DNA 2: B7 DNA 2 with A13T, A18G
With B8, in series [3], the binding result is “no binding”.

B9: RsmA-2A (dsDNA)
DNA 1: CAGTAAGCATCTGGGCTGCAAGCGTATA
DNA 2: TATACGCTTGCAGCCCAGATGCTTACTG
Take B9: the binding result in series [3] was “no binding”.

B10: AP1-brlA (dsDNA)
DNA 1: AAAACAATACAATTTACTAAAGTCCACTGGGCA
DNA 2: TGCCCAGTGGACTTTAGTAAATTGTATTGTTTT
In the case of B10, the binding result in series [4] is “binds”; in series [3], “no binding”.

B11: AP1-brlA-Mut (dsDNA)
DNA 1: B10 DNA 1 with T15G, A20G
DNA 2: B10 DNA 2 with T14C, A19C
Consider B11, for which the binding result in series [4] and in series [3] was “no binding” each time.

The values above are taken from paper PMC8977021, “bZIP transcription factors PcYap1 and PcRsmA link oxidative stress response to secondary metabolism and development in Penicillium chrysogenum”.
